Kd data for one substance are collected here from paper PMC5697745.

pKd: −log10 of the molar value.

This assay has as its target FAM-AIP-I, fluorescein-tagged AIP-I (Staphylococcus aureus (group I)). Description: fluorescence polarisation. (In general: Fluorescence polarisation rises when a labelled molecule tumbles more slowly, as on binding a larger partner.)

One may read the pKd as −log10 of the Kd, conventionally taken in molar units. Low values mean a large Kd, high ones a small Kd. On to “AgrC-I^R238H, constitutively active full-length AgrC-I mutant, in nanodiscs (receptor)”, for which the pKd was 7.29.
